# According to publication PMC10397247:
# T1: 4H2944-AA
# T1 chain: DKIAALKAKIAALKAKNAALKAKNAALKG
# T2: 4H2949-AA
# T2 chain: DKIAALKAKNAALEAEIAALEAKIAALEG
# T3: 4H3112-AA
# T3 chain: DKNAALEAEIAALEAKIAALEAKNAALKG
# T4: 4H317-AA
# T4 chain: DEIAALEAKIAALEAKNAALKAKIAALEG
# T5: 4H3343-AA
# T5 chain: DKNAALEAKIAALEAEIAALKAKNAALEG
# T6: 4H335-AA
# T6 chain: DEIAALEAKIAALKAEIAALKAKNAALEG
# T7: 4H342-AA
# T7 chain: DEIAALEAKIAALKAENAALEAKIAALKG
# T8: 4H3427-AA
# T8 chain: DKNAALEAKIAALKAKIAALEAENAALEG
# T9: 4H3606-AA
# T9 chain: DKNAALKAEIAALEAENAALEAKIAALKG
# T10: 4H3627-AA
# T10 chain: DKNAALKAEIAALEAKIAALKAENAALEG
# T11: 4H3655-AA
# T11 chain: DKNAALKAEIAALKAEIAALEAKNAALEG
# T12: 4H3718-AA
# T12 chain: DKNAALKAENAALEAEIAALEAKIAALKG
# T13: 4H3844-AA
# T13 chain: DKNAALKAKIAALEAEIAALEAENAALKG
# T14: 4H3921-AA
# T14 chain: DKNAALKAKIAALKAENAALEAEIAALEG
# T15: 4H429-AA
# T15 chain: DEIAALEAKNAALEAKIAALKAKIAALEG
# T16: 4H454-AA
# T16 chain: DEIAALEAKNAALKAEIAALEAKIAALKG
# T17: 4H48-AA
# T17 chain: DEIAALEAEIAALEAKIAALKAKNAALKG
# T18: 4H566-AA
# T18 chain: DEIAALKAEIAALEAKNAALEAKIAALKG
# T19: 4H605-AA
# T19 chain: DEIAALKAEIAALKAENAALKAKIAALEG
# T20: 4H678-AA
# T20 chain: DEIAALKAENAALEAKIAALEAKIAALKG
# T21: 4H717-AA
# T21 chain: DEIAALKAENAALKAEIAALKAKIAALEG
# T22: 4H780-AA
# T22 chain: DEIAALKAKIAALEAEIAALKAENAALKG
# T23: 4H794-AA
# T23 chain: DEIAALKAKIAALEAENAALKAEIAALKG
# T24: 4H881-AA
# T24 chain: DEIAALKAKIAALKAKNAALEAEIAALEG
# T25: 4H906-AA
# T25 chain: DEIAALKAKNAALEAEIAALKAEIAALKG
# T26: 4H993-AA
# T26 chain: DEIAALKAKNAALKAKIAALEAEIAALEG
# T27: Q3-AA
# T27 chain: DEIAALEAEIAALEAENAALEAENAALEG
# T28: Q7-AA
# T28 chain: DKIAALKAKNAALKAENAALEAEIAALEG
# T29: Q8-AA
# T29 chain: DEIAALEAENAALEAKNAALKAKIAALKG
# Assays:
# Experiment in all cases: two-hybrid library CCmax;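 further: natural log of median RNA to DNA barcode read ratio; higher means stronger binding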
# 4H2944-AA = target: T1, 4H2944-AA
# 4H2949-AA = target: T2, 4H2949-AA; conditions: mean of both orientations
# 4H3112-AA = target: T3, 4H3112-AA; conditions: mean of both orientations
# 4H317-AA = target: T4, 4H317-AA; conditions: mean of both orientations
# 4H3343-AA = target: T5, 4H3343-AA; conditions: mean of both orientations
# 4H335-AA = target: T6, 4H335-AA; conditions: mean of both orientations
# 4H342-AA = target: T7, 4H342-AA; conditions: mean of both orientations
# 4H3427-AA = target: T8, 4H3427-AA; conditions: mean of both orientations
# 4H3606-AA = target: T9, 4H3606-AA; conditions: mean of both orientations
# 4H3627-AA = target: T10, 4H3627-AA; conditions: mean of both orientations
# 4H3655-AA = target: T11, 4H3655-AA; conditions: mean of both orientations
# 4H3718-AA = target: T12, 4H3718-AA; conditions: mean of both orientations
# 4H3844-AA = target: T13, 4H3844-AA; conditions: mean of both orientations
# 4H3921-AA = target: T14, 4H3921-AA; conditions: mean of both orientations
# 4H429-AA = target: T15, 4H429-AA; conditions: mean of both orientations
# 4H454-AA = target: T16, 4H454-AA; conditions: mean of both orientations
# 4H48-AA = target: T17, 4H48-AA
# 4H566-AA = target: T18, 4H566-AA; conditions: mean of both orientations
# 4H605-AA = target: T19, 4H605-AA; conditions: mean of both orientations
# 4H678-AA = target: T20, 4H678-AA; conditions: mean of both orientations
# 4H717-AA = target: T21, 4H717-AA; conditions: mean of both orientations
# 4H780-AA = target: T22, 4H780-AA; conditions: mean of both orientations
# 4H794-AA = target: T23, 4H794-AA; conditions: mean of both orientations
# 4H881-AA = target: T24, 4H881-AA; conditions: mean of both orientations
# 4H906-AA = target: T25, 4H906-AA; conditions: mean of both orientations
# 4H993-AA = target: T26, 4H993-AA; conditions: mean of both orientations
# Q3-AA = target: T27, Q3-AA; conditions: mean of both orientations
# Q7-AA = target: T28, Q7-AA; conditions: mean of both orientations
# Q8-AA = target: T29, Q8-AA; conditions: mean of both orientations
binder,measurement,setting,value
DKIAALKAKIAALKAKNAALKAKNAALKG [4H2944-AA],interaction score,4H2944-AA,-1.62
same,interaction score,4H2949-AA,-1.55
same,interaction score,4H3112-AA,-0.15
same,interaction score,4H317-AA,-1.04
same,interaction score,4H3343-AA,-1.17
same,interaction score,4H335-AA,-1.7
same,interaction score,4H342-AA,1.12
same,interaction score,4H3427-AA,-0.0703
same,interaction score,4H3606-AA,-0.0316
same,interaction score,4H3627-AA,-0.579
same,interaction score,4H3655-AA,-0.297
same,interaction score,4H3718-AA,-0.87
same,interaction score,4H3844-AA,0.407
same,interaction score,4H3921-AA,-0.731
same,interaction score,4H429-AA,-1.71
same,interaction score,4H454-AA,-1.8
same,interaction score,4H48-AA,-1.33
same,interaction score,4H566-AA,0.106
same,interaction score,4H605-AA,-1.34
same,interaction score,4H678-AA,-1.67
same,interaction score,4H717-AA,-1.69
same,interaction score,4H780-AA,-1.43
same,interaction score,4H794-AA,-1.89
same,interaction score,4H881-AA,-0.992
same,interaction score,4H906-AA,-1.83
same,interaction score,4H993-AA,-2.01
same,interaction score,Q3-AA,1.67
same,interaction score,Q7-AA,-1.77
same,interaction score,Q8-AA,-1.55
